The values that follow are results of earlier work, collected in PMC4327442.

The data set addresses IL-18 (Homo sapiens) (UniProt Q14116).

Sequence of IL-18 (Homo sapiens) (Q14116 37-193): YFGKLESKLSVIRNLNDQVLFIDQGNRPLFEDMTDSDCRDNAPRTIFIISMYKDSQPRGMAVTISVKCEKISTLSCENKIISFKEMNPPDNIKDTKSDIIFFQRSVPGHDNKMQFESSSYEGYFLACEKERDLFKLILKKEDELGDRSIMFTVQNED
Sequence of IL-18BP (O95998 31-194): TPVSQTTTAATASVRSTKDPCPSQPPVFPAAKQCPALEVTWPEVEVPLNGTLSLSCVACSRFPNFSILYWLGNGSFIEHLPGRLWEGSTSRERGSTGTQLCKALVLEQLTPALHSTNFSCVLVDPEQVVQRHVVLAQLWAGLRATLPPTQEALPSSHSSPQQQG

On to IL-18BP (from UniProt O95998), for which the Kd is 0.399 nM.

One may read the Kd as a measure of binding affinity in units of concentration.
